{"source": "patent US20020165186A1", "about": "“Compounds that affect CD83 expression, pharmaceutical compositions comprising said compounds and methods for identifying said compounds” (priority 2000, published 2002)", "molecules": {"B1": {"name": "CD83 RNA: in vitro transcribed RNA of nucleotides 1 to 618 of SEQ ID NO:1 (human CD83 coding region) (nucleic acid, listed as Homo sapiens)", "sense": "ATGTCGCGCGGCCTCCAGCTTCTGCTCCTGAGCTGCGCCTACAGCCTGGCTCCCGCGACGCCGGAGGTGAAGGTGGCTTGCTCCGAAGATGTGGACTTGCCCTGCACCGCCCCCTGGGATCCGCAGGTTCCCTACACGGTCTCCTGGGTCAAGTTATTGGAGGGTGGTGAAGAGAGGATGGAGACACCCCAGGAAGACCACCTCAGGGGACAGCACTATCATCAGAAGGGGCAAAATGGTTCTTTCGACGCCCCCAATGAAAGGCCCTATTCCCTGAAGATCCGAAACACTACCAGCTGCAACTCGGGGACATACAGGTGCACTCTGCAGGACCCGGATGGGCAGAGAAACCTAAGTGGCAAGGTGATCTTGAGAGTGACAGGATGCCCTGCACAGCGTAAAGAAGAGACTTTTAAGAAATACAGAGCGGAGATTGTCCTGCTGCTGGCTCTGGTTATTTTCTACTTAACACTCATCATTTTCACTTGTAAGTTTGCACGGCTACAGAGTATCTTCCCAGATTTTTCTAAAGCTGGCATGGAACGAGCTTTTCTCCCAGTTACCTCCCCAAATAAGCATTTAGGGCTAGTGACTCCTCACAAGACAGAACTGGTATGA", "modifications": "RNA transcript; CDS (1)..(615)"}, "B2": {"name": "CD83 from nucleotides 466 to 615 of SEQ ID NO:1: in vitro transcribed RNA containing nucleotides 466 to 615 of SEQ ID NO:1 (nucleic acid, listed as Homo sapiens)", "sense": "TTAACACTCATCATTTTCACTTGTAAGTTTGCACGGCTACAGAGTATCTTCCCAGATTTTTCTAAAGCTGGCATGGAACGAGCTTTTCTCCCAGTTACCTCCCCAAATAAGCATTTAGGGCTAGTGACTCCTCACAAGACAGAACTGGTA", "modifications": "RNA transcript; CDS (1)..(615)"}, "B3": {"name": "stem-loop-2: CD83 RNA sub-fragment from nucleotide 466 to nucleotide 618 of SEQ ID NO:1, 3-pronged stem-loop structure (nucleic acid, listed as Homo sapiens)", "sense": "TTAACACTCATCATTTTCACTTGTAAGTTTGCACGGCTACAGAGTATCTTCCCAGATTTTTCTAAAGCTGGCATGGAACGAGCTTTTCTCCCAGTTACCTCCCCAAATAAGCATTTAGGGCTAGTGACTCCTCACAAGACAGAACTGGTATGA", "modifications": "RNA; CDS (1)..(615)"}, "B4": {"name": "stem-loop-1: CD83 RNA sub-fragment from nucleotide 295 to nucleotide 465 of SEQ ID NO:1, single stem-loop structure (nucleic acid, listed as Homo sapiens)", "sense": "AGCTGCAACTCGGGGACATACAGGTGCACTCTGCAGGACCCGGATGGGCAGAGAAACCTAAGTGGCAAGGTGATCTTGAGAGTGACAGGATGCCCTGCACAGCGTAAAGAAGAGACTTTTAAGAAATACAGAGCGGAGATTGTCCTGCTGCTGGCTCTGGTTATTTTCTAC", "modifications": "RNA; CDS (1)..(615)"}}, "assay_type_in_all_cases": "binding", "key": {"[1]": {"target": "T1, GST-ELAV (HuR) (Homo sapiens, UniProt Q15717)", "T1 construct": "made in house; host or cells: E. coli BL21", "T1 sequence (Q15717 whole entry)": "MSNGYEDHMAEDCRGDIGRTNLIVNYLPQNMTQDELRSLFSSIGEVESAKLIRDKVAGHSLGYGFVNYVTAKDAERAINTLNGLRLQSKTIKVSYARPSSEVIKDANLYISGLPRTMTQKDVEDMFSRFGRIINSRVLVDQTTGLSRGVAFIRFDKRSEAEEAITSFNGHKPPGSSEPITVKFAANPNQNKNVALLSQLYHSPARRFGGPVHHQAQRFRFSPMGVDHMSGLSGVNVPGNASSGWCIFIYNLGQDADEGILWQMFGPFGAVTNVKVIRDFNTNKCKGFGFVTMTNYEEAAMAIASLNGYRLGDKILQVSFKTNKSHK", "assay": "RNA gel competition mobility shift with unlabeled CD83 RNA", "details": "increasing amounts of unlabeled RNA, FIG. 5", "protocol": "For this, the binding mixture as described above was produced with increasing amounts of non-radioactive CD83 RNA and the RNA mobility shift experiments were carried out as described above, except that the binding mixture was incubated with the respective protein for 15 min and then the same amount of radioactively labeled CD83 RNA (1 μl) was subsequently added to each reaction and incubation was continued for a further 15 min."}, "[2]": {"target": "T2, GST-ELAV (HuR) fusion protein (Homo sapiens, UniProt Q15717)", "T2 construct": "made in house; host or cells: E. coli BL21", "T2 sequence (Q15717 whole entry, the tested form may be a part)": "as the sequence (Q15717 whole entry) above", "assay": "RNA gel mobility shift of CD83 RNA with GST-ELAV (HuR)", "details": "for HuR binding to sub-fragment domain: FIG. 10", "protocol": "RNA mobility shift experiments are a very sensitive method for characterizing RNA-protein interactions. For this, the RNA to be examined can be amplified and radioactively labeled with the aid of in vitro transcription from a linear DNA template. The labeling generally occurs with […]. In order to ensure the correct folding of the RNA, this is heated in a water bath to 80° C. and cooled to room temperature. RNA obtained in this manner is then incubated with the desired protein and subsequently analyzed on a native polyacrylamide gel, i.e. under non-denaturing conditions.\nIn order to obtain radioactively labeled RNA for the RNA mobility shift experiments, approximately 20 μg of this vector were linearized with EcoRI and purified on a 0.8% agarose gel. After elution from the gel, the template was extracted with phenol and ethanol precipitated. The resulting DNA was resuspended at a concentration of […] in 20μl nuclease-free water. Radioactively labeled RNA was generated using a Riboprobe In Vitro Transcription System (Promega, Heidelberg, Germany) according to the instructions of the manufacturer using [α-^32P]-UTP. The transcription products were controlled for size and purity by separating 1 μl of the in vitro transcription reaction on a denaturing RNA agarose gel (1.2%), blotting the gel to a nitrocellulose membrane (Amersham-Pharmacia, Freiburg, Germany) for 8 hours and examining the nitrocellulose filter with the aid of photographic film using RNA size standards.\n(§1) RNA mobility shift experiments were then carried out using the radioactively labeled CD83 RNA and the GST-ELAV (HuR) fusion protein as described above. 1 μl of approximately 150-200 ng/ml radioactively labeled CD83 RNA and 1 μl of GST-ELAV (HuR) (protein concentration: 0.3 mg/ml) were used per reaction. Alternatively, GST protein without ELAV sequences was used as a control. The radioactively labeled CD83 RNA was heated to 80° C. in a water bath and cooled to room temperature directly before the reaction. The GST-ELAV (HuR) fusion protein (or GST control protein directly expressed from the vector pGEX-5X-1 was carefully mixed with a binding mixture consisting of 1 μl radioactively labeled CD83 RNA, 1 μl Rnasin® RNAse inhibitor (diluted 5:1 in PBS), 1 μl 10×PBS and 6 μl MS2 RNA or 5S RNA (Roche Diagnostics, Mannheim, Germany) (0.8 μg/μl) and incubated at room temperature for 30 min. 3 μl of 50% glycerin were added to each reaction to ease loading and analysis of the binding between the GST-ELAV (HuR) fusion protein and the CD83 RNA occurred on a 4% or 6% native polyacrylamide gel with a TBE running buffer of pH 8.3.\nAs a control for the specificity of the interaction between HuR and CD83 mRNA, RNA mobility shifts as described in Example 1 were performed using the GST protein as described above, a GST-L5 fusion protein (Schatz et al. (1998) PNAS USA 95: 1607-1612), and a GST- M9 fusion protein comprising the M9 domain of the heterogeneous nuclear ribonucleoprotein hnRNP A1 (Pollard, V. W. et al. (1996) Cell 86: 985-994).\nThe resulting vectors were linearized with EcoRI and radioactively labeled RNA was produced and employed in RNA mobility shift assays as described above."}, "[3]": {"target": "T3, GST protein (Schistosoma japonicum, UniProt P08515)", "T3 construct": "made in house", "T3 sequence (P08515 whole entry)": "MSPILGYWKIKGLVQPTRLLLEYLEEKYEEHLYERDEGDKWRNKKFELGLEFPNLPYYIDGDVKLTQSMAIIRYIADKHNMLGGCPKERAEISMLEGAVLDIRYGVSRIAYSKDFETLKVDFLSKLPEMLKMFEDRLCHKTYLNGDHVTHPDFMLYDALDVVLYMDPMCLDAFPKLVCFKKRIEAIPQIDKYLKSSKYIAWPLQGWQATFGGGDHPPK", "assay": "RNA gel mobility shift of CD83 RNA with GST protein control", "details": "native polyacrylamide gel, FIG. 3", "protocol": "as §1"}, "[4]": {"target": "T1, GST-ELAV (HuR)", "assay": "Surface Plasmon Resonance (BIACore X) protein-RNA interaction", "excerpt": "Specific protein-RNA interactions were detected by Surface Plasmon Resonance using the BIACore X optical biosensor (Pharmacia Biosensor AB, Upsala, Sweden).\nThe RNA used contained nucleotides 466 to 615 of SEQ ID NO:1 having a molecular mass of 48,350 gr/mol.\nThe GST-fusion proteins of interest (GST alone or GST-ELAV (HuR)) were immobilized onto the surface of a CM5 Chip (Pharmacia Biosensor AB, Upsala, Sweden) by using the BIACore GST Capture Kit (Pharmacia Biosensor AB, Upsala, Sweden), according to the manufacturers instructions, until a change of at least 1,000 resonance units (RU) was detectable.\n1 μg of in vitro transcribed RNA (using the T7/SP6 Riboprobe Kit, Promega, Mannheim, Germany) was diluted in a total volume of 80 μl HBS-EP buffer (10 mM HEPES, 150 mM NaCl, 3 mM EDTA, 0.005% (v/v) polysorbate 20) and was allowed to flow over the chip at a flow rate of 50μl/minute. The standard running buffer was HBS-EP buffer. The sensor surface was regenerated between assays by injecting 30 μl of 0.5 M NaCl to remove bound analyte.\nDetermination of KD values and calculation of binding specifity were performed using BIAEvaluation Software 3.1 (Pharmacia Biosensor AB, Upsala, Sweden)."}}, "data": [{"molecule": "B1", "values": [{"measurement": "competition of labeled CD83 RNA binding by unlabeled RNA", "setting": "[1]", "result": "capable of titrating free GST-ELAV (HuR) protein"}, {"measurement": "specificity of the shift in mobility (GST, GST-L5, GST-M9, GST-ELAV (HuR))", "setting": "[2]; FIG. 4", "result": "only observed with protein comprising the HuR sequence"}, {"measurement": "mobility shift of the RNA by GST-ELAV (HuR)", "setting": "[2]; native polyacrylamide gel, FIG. 3", "result": "shifted the CD83 RNA to a higher position in the gel"}, {"measurement": "region of HuR binding", "setting": "[2]; sub-fragments nt1-294, nt202-414, nt295-618, FIG. 6", "result": "from nucleotide 415 to nucleotide 618"}, {"measurement": "mobility shift of the RNA by GST protein control", "setting": "[3]", "result": "no shift occurred"}]}, {"molecule": "B2", "values": [{"measurement": "binding of HuR (affinity and specificity in words)", "setting": "[4]", "result": "high affinity and is highly specific"}]}, {"molecule": "B3", "values": [{"measurement": "HuR binding to sub-fragment domain", "setting": "[2]", "result": "can bind"}]}, {"molecule": "B4", "values": [{"measurement": "HuR binding to sub-fragment domain", "setting": "[2]", "result": "can bind"}]}]}
